These results are taken from paper PMC6932757, “Inhibition of FLT1 ameliorates muscular dystrophy phenotype by increased vasculature in a mouse model of Duchenne muscular dystrophy” (PLoS Genetics, 2019).

The experiment has as its target T1, mouse FLT1-FC chimeric protein with His-tag (mouse, UniProt P35969 23-759).
T1 construct: FLT1 (VEGF receptor-1, VEGFR1), mouse, soluble form fused to FC; also called chimeric FLT1-FC; mouse soluble FLT1-FC chimeric protein; source: bought: R&D Systems (471-F1-100)
T1 sequence (looked up): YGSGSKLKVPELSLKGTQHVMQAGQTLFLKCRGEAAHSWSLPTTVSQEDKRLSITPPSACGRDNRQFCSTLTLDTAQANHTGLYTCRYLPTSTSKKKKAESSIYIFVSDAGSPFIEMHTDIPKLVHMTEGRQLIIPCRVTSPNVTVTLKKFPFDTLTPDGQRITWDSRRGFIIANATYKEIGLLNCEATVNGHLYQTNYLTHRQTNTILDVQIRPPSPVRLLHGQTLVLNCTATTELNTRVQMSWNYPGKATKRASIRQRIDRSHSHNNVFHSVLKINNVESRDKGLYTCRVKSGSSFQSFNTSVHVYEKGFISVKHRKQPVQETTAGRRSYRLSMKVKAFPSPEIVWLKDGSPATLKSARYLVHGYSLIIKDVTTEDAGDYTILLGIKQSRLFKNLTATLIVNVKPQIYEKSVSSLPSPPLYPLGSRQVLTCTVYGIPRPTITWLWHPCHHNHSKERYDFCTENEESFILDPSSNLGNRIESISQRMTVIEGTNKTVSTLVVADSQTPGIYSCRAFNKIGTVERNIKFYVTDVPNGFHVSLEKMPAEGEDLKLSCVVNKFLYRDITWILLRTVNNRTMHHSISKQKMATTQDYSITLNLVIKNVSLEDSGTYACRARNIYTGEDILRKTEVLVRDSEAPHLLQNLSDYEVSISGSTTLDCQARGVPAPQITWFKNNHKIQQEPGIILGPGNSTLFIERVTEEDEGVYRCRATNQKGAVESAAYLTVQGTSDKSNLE
Briefly: ELISA; mouse FLT1-FC (His-tag) coated on 96 well plates, blocked with 5% BSA; anti-FLT1 antibodies incubated, then mouse PlGF2; detected with biotin-conjugated anti-PlGF2 antibody and Streptavidin-HRP, TMB, 450 nm. Conditions: both partners purified.

B1: recombinant mouse PlGF2 (ligand, UniProt P49764 19-158, looked up)
chain: VHSQGALSAGNNSTEVEVVPFNEVWGRSYCRPMEKLVYILDEYPDEVSHIFSPSCVLLSRCSGCCGDEGLHCVPIKTANITMQILKIPPNRDPHFYVEMTFSQDVLCECRPILETTKAERRKTKGKRKRSRNSQTEEPHP
notes: Placenta growth factor 2 (PlGF2), mouse, recombinant; probably the mature secreted protein (surmised); source: bought: R&D Systems (465-PL-010/CF)
With B1, the binding result is recorded as “binds”.
